Data published in paper PMC12394151 (2025).

Columns and labels:
Test in all cases: BLI
GP20-Fc = GP20-Fc (llama (Lama glama))
GP13-Fc = GP13-Fc (llama (Lama glama))
GP01-Fc = GP01-Fc (llama (Lama glama))
GP11-Fc = GP11-Fc (llama (Lama glama))

B1: recombinant human gp130 with His-tag (Acro, ILT-H52H2) (receptor)
chain: ELLDPCGYISPESPVVQLHSNFTAVCVLKEKCMDYFHVNANYIVWKTNHFTIPKEQYTIINRTASSVTFTDIASLNIQLTCNILTFGQLEQNVYGITIISGLPPEKPKNLSCIVNEGKKMRCEWDGGRETHLETNFTLKSEWATHKFADCKAKRDTPTSCTVDYSTVYFVNIEVWVEAENALGKVTSDHINFDPVYKVKPNPPHNLSVINSEELSSILKLTWTNPSIKSVIILKYNIQYRTKDASTWSQIPPEDTASTRSSFTVQDLKPFTEYVFRIRCMKEDGKGYWSDWSEEASGITYEDRPSKAPSFWYKIDPSHTQGYRTVQLVWKTLPPFEANGKILDYEVTLTRWKSHLQNYTVNATKLTVNLTNDRYLATLTVRNLVGKSDAAVLTIPACDFQATHPVMDLKAFPKDNMLWVEWTTPRESVKKYILEWCVLSDKAPCITDWQQEDGTVHRTYLRGNLAESKCYLITVTPVYADGPGSPESIKAYLKQAPPSKGPTVRTKKVGKNEAVLEWDQLPVDVQNGFIRNYTIFYRTIIGNETAVNVDSSHTEYTLSSLTSDTLYMVRMAAYTDEGGKDGPEFTFTTPKFAQGEIE
- koff (GP20-Fc): 0.000737 s⁻¹
- koff (GP13-Fc): 0.00288 s⁻¹
- koff (GP01-Fc): 0.00223 s⁻¹
- koff (GP11-Fc): 0.00042 s⁻¹
